From the supplement of paper PMC9732359
± gives the uncertainty stated by the source.

Assay: protein stability index of a GFP-peptide fusion (yeast GPS) (PSI 1-4); higher = more stable; sorted into four equal gates, so the index is relative within each strain
In short: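 The protein stability index combines read frequencies across sorting gates, each weighted by its gate number and then summed. To obtain those frequencies, a pooled yeast library of GFP fusions to tiled 17-residue yeast protein peptides, on a plasmid also expressing Cherry, was grown to mid-log phase in leucine-free medium. The cells were sorted into four equal gates by GFP/Cherry ratio before plasmid amplification by PCR and Illumina sequencing.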

Sequence | protein stability index (doa10∆) | protein stability index (pdr5∆) | protein stability index (san1∆) | protein stability index (ubr1∆)
KEVLPDLQNLNLNTDKL [YJL039C/NUP192] | 3.38 ± 0.1 | 2.94 ± 0.098 | 3.25 ± 0.097 | 2.64 ± 0.085
LKFNHGNYSHLMEKNRI [REC8] | 2.06 ± 0.073 | 2.47 ± 0.056 | 2.28 ± 0.064 | 2.52 ± 0.052
YRATSLDPSLRAPIYHS [YML031W/NDC1] | 2.4 ± 0.068 | 2.68 ± 0.055 | 2.44 ± 0.058 | 2.44 ± 0.037
KGTNDEGTSISVHLIEC [YCS4] | 2.78 ± 0.094 | 2.73 ± 0.071 | 2.69 ± 0.11 | 3.2 ± 0.059
PGVRVSGEDVIIGKTTP [RPB2] | 3.36 ± 0.13 | 3.41 ± 0.16 | 3.61 ± 0.078 | 3.45 ± 0.073
ASIGQAAEQQSKAFKES [SRP54] | 3.45 ± 0.19 | 3.33 ± 0.17 | 3.14 ± 0.096 | 3.16 ± 0.082
ELKYQRSLRATAEERVG [RPL15A] | 1.27 ± 0.083 | 1.48 ± 0.11 | 1.67 ± 0.19 | 1.09 ± 0.054
YIRKLISSGLLYLQDSN [SRB8] | 1.63 ± 0.068 | 1.21 ± 0.093 | 1.18 ± 0.11 | 1.11 ± 0.061
IVQFTYGGDGLDPLEME [RPO31] |  | 3.09 ± 0.2 | 2.55 ± 0.27 | 
MFTQIYLERIELSFYIL [YML103C/NUP188] | 1.66 ± 0.1 | 1.46 ± 0.074 | 1.36 ± 0.1 | 1.75 ± 0.12
EQDPYSNASQMGNTGSG [RPB3] | 2.7 ± 0.13 | 2.45 ± 0.14 | 2.21 ± 0.2 | 2.95 ± 0.1
LSDIETAVNGIDTDLFG [YGL172W/NUP49] | 3.11 ± 0.079 | 3.16 ± 0.086 | 3.2 ± 0.062 | 3.19 ± 0.055
QDIYYLAQTLKLWRKIA [RRI2] | 2.04 ± 0.057 | 2.17 ± 0.046 | 1.88 ± 0.07 | 1.63 ± 0.047
ELKEITSLPDWCQEAFP [BRR2] | 2.86 ± 0.069 | 2.73 ± 0.076 | 3.11 ± 0.064 | 3.08 ± 0.046
NILSNKPGQNNRQQKKR [RRP6] | 2.73 ± 0.18 | 3.06 ± 0.13 |  | 
MQQAQFQAQQAQQAQQA [SNF2] | 2.56 ± 0.043 | 2.86 ± 0.039 | 2.62 ± 0.032 | 2.53 ± 0.032
IDRGLFRSLFFRSYMDQ [RPB2] | 3 ± 0.27 | 2.88 ± 0.27 | 1.86 ± 0.25 | 2.94 ± 0.084
LSRKPSDNKKRSGSNAA [RPC82] | 2.92 ± 0.06 | 3.31 ± 0.064 | 3.03 ± 0.045 | 3.03 ± 0.044
RLDILDPALLRPGRIDR [RPT6] | 2.79 ± 0.22 |  | 2.65 ± 0.12 | 
SGNGSNPNTNTNSNNTP [PGD1] | 2.78 ± 0.062 | 3 ± 0.056 | 2.95 ± 0.038 | 2.87 ± 0.041
MSVSDNDQALIKVLLRQ [RET1] | 2.48 ± 0.052 | 2.62 ± 0.069 | 2.71 ± 0.067 | 2.6 ± 0.053
TATASLGVIHKGNLLEG [RPN2] | 2.96 ± 0.16 | 1.84 ± 0.082 | 1.98 ± 0.16 | 2.72 ± 0.081
YKTSKAAQDVWNRADNH [FAS1] | 2.96 ± 0.21 | 2.98 ± 0.17 | 1.71 ± 0.29 | 
NELPDIEALYDDDTFSD [RPN2] | 3.12 ± 0.1 | 3.35 ± 0.13 | 3.23 ± 0.12 | 2.98 ± 0.081
KGVTEKDAVDYSKIPNI [RRP6] | 3.24 ± 0.12 | 3.18 ± 0.092 | 3.25 ± 0.08 | 3.3 ± 0.069
LVGSEIYEKLKNYLKNY [CDC53] |  | 1.21 ± 0.12 | 1.09 ± 0.16 | 
DEAKDFIVSGTASDQLF [PUP3] | 2.74 ± 0.089 | 2.83 ± 0.07 | 2.57 ± 0.096 | 2.92 ± 0.076

Sequence | protein stability index (doa10∆) | protein stability index (pdr5∆) | protein stability index (san1∆) | protein stability index (ubr1∆)
RPYGVGLLIIGYDKSGA [PRE5] | 1.68 ± 0.12 | 1.08 ± 0.14 |  | 1.06 ± 0.12
QDENIGLSMLAKLKELA [RPC31] | 3.14 ± 0.071 | 3.46 ± 0.074 | 3.05 ± 0.092 | 3.16 ± 0.053
MTAQQAPKWYPSEDVAA [RPL6B] | 1.77 ± 0.11 | 1.7 ± 0.074 | 1.84 ± 0.091 | 1.71 ± 0.11
LYYPQKPLGTTRAMEYL [RPB2] | 2.17 ± 0.089 | 2.9 ± 0.15 | 2.05 ± 0.14 | 2.83 ± 0.06
TLSKTTDSSALTYDRLE [PRE9] | 3.16 ± 0.1 | 2.99 ± 0.13 | 2.89 ± 0.1 | 2.94 ± 0.058
RSATGAKRAQFRKKRKF [RPS8A] | 2.94 ± 0.1 | 2.5 ± 0.085 | 3.42 ± 0.096 | 2.68 ± 0.073
RIHVNPSYYGVRDTSPH [BRR2] | 1.96 ± 0.1 | 1.93 ± 0.072 | 1.74 ± 0.085 | 1.9 ± 0.058
LKYPELSIKNSFIINFI [NUT1] | 1.99 ± 0.062 | 2 ± 0.045 | 2.13 ± 0.076 | 1.94 ± 0.036
VQQFAQLPVGFKNMGNT [UBP6] | 2.03 ± 0.1 | 1.74 ± 0.076 | 1.44 ± 0.15 | 1.92 ± 0.06
MDPGAPLPVETPRDRRK [SSN2] |  |  | 3.25 ± 0.25 | 
RGTDIDRINYTETALMN [SRB5] | 3.02 ± 0.26 | 2.98 ± 0.11 | 2.69 ± 0.082 | 2.73 ± 0.12
ANYIKERTKNAQFIVIS [SMC4] | 2.76 ± 0.11 | 1.5 ± 0.067 | 1.49 ± 0.11 | 2.27 ± 0.071
EPSDLRSWTLTSEMKVL [YGL100W/SEH1] | 2.92 ± 0.049 | 2.77 ± 0.045 | 3.16 ± 0.052 | 3.37 ± 0.045
HGGSRYATKDGVAHLLN [QCR2] | 3.13 ± 0.094 | 2.82 ± 0.055 | 3.3 ± 0.1 | 3.09 ± 0.072
PKFISEALAFTSLVANE [YDL116W/NUP84] | 1.23 ± 0.067 | 1.38 ± 0.078 | 1.31 ± 0.15 | 1.11 ± 0.17
LISSSGPIKTPVGACAT [FAS2] | 1.76 ± 0.053 | 1.76 ± 0.11 | 1.31 ± 0.098 | 2.17 ± 0.071
HIAHTLPEKVNFRTMQQ [SSN2] | 2.78 ± 0.079 | 2.92 ± 0.072 | 2.83 ± 0.083 | 2.75 ± 0.071
RVERSSRSTDNFHNSKK [RRI1] | 3.31 ± 0.076 | 3.25 ± 0.078 | 2.99 ± 0.082 | 3.08 ± 0.057
PYFPGGSIAMARVLFDD [CYT1] | 2.29 ± 0.14 | 1.88 ± 0.1 | 2.61 ± 0.11 | 2.69 ± 0.093
FDKDLERDTFSDFTFPE [DIS3] | 2.11 ± 0.15 | 1.88 ± 0.13 | 1.24 ± 0.17 | 1.32 ± 0.15
VLEQLSGQTPVQSKARY [RPL11A] | 3.2 ± 0.24 | 2.98 ± 0.17 | 2.91 ± 0.077 | 3.15 ± 0.088
RELFVMAREHAPSIIFM [RPT6] | 1.82 ± 0.078 | 1.99 ± 0.085 | 1.4 ± 0.23 | 1.71 ± 0.078
LPDPKPLPLDLNVQVWH [ITC1] | 2.8 ± 0.064 | 2.72 ± 0.051 | 3.01 ± 0.063 | 2.55 ± 0.038
TAEFGKILAGLHDTQIE [RPN10] | 3.23 ± 0.11 | 3.44 ± 0.11 | 3.13 ± 0.14 | 3.02 ± 0.1
VFYAELNEFFTRELAEE [RPS3] | 3.16 ± 0.13 | 3.24 ± 0.16 | 3.26 ± 0.09 | 3.28 ± 0.082
VILKQILQILDQDELVQ [SWP82] | 2.54 ± 0.051 | 2.52 ± 0.082 | 2.57 ± 0.063 | 2.5 ± 0.06
SSIQESLLSLVGHLSIL [ECM29] | 2.01 ± 0.045 | 1.75 ± 0.043 | 1.83 ± 0.053 | 1.6 ± 0.025
